Values quoted from earlier work in PMC8179794.
Like-named read-outs stand apart in the source and are kept apart here.

How the values were obtained:
IL-2Rα (Homo sapiens) = IL-2Rα (Homo sapiens) (UniProt P01589)
IL-2Rβ (Homo sapiens) [1] = biological target: IL-2Rβ (Homo sapiens) (UniProt P14784)
IL-9R (Homo sapiens) = IL-9R (Homo sapiens) (UniProt Q01113)
IL-15Rα (Homo sapiens) = IL-15Rα (Homo sapiens) (UniProt Q13261)
IL-2Rβ (Homo sapiens) [2] = biological target: IL-2Rβ (Homo sapiens) (UniProt P14784); remark: listed apart in the source
IL-21R (Homo sapiens) = IL-21R (Homo sapiens) (UniProt Q9HBE5)
UniProt Q9HBE5, sequence (Q9HBE5 20-232): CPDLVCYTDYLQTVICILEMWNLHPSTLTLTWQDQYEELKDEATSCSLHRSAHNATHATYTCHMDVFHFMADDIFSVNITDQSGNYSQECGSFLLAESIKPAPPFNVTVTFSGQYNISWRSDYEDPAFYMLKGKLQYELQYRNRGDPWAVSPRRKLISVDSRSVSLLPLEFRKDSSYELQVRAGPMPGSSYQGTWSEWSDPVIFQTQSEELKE

UniProt P14784, sequence (P14784 27-240): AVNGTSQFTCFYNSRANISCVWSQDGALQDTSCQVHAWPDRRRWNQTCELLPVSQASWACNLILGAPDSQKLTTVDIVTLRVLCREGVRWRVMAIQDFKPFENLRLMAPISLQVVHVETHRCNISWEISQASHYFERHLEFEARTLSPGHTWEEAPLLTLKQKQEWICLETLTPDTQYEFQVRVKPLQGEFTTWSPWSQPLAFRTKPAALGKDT
UniProt Q01113, sequence (Q01113 41-270): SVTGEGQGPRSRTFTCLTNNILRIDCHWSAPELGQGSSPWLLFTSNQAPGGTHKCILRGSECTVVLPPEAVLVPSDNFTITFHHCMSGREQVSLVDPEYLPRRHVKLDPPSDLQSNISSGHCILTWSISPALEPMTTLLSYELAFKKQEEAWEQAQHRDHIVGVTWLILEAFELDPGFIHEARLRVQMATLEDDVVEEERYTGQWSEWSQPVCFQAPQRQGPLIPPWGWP
UniProt P01589, sequence (P01589 22-240): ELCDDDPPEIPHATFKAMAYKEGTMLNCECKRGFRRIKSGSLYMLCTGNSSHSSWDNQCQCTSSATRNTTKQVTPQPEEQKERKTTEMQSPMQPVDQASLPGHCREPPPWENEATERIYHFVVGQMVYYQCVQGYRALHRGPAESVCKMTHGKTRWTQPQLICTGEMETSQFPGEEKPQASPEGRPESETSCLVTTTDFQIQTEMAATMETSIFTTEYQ
UniProt Q13261, sequence (Q13261 31-205): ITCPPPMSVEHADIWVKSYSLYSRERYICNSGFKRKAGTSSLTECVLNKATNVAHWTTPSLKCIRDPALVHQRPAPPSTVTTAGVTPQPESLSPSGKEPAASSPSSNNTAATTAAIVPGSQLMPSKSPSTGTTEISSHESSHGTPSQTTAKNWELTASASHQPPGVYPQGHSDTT

Question: Which Kd (IL-2Rα (Homo sapiens)) does the source give for IL-2 (from UniProt P60568) here?
Answer: 10 nM

Question: And the Kd (IL-2Rβ (Homo sapiens) [1])?
Answer: 144 nM

Question: For IL-9 (from UniProt P15248), which Kd (IL-9R (Homo sapiens)) is on record?
Answer: 0.1 nM

Question: With IL-15 (from UniProt P40933) as the substance, how does the Kd (IL-15Rα (Homo sapiens)) read?
Answer: 0.065 nM

Question: And the Kd (IL-2Rβ (Homo sapiens) [2])?
Answer: 438 nM

Question: Which Kd (IL-21R (Homo sapiens)) does the source give for IL-21 (from UniProt Q9HBE4) here?
Answer: 0.07 nM
